Measurements taken from US20230295295A1 (published 2023).
Residue numbers refer to the chain shown, from its start. Where “and” joins values, the source holds several entries; their conditions need not be identical. Equal entries are not always repeated.

Legend:
[1] = target: T1, Human LAG-3 expressed on cells (human, UniProt P18627 23-525); assay: cell-based or functional assay
T1 sequence (looked up): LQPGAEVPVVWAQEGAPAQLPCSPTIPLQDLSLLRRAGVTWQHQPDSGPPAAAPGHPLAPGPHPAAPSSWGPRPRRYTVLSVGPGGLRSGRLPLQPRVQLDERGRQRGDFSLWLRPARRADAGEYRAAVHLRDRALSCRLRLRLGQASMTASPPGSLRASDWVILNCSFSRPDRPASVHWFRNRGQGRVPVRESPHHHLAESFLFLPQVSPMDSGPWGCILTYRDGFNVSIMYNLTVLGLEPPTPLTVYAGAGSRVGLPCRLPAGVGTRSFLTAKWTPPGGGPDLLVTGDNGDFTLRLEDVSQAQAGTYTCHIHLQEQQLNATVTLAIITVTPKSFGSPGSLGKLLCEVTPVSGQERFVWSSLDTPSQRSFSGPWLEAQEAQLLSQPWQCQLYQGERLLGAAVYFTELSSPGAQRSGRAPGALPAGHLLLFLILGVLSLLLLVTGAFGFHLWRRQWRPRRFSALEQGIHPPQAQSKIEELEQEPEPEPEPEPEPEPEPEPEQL

[2] = target: T2, Recombinant human LAG-3 ECD-His6 (human, UniProt P18627 23-433); assay: SPR Biacore T100, Anova comparison of KD on LAG-3 ECD-His6
T2 construct: also called LAG-3-His; recombinant human LAG-3-His
T2 sequence: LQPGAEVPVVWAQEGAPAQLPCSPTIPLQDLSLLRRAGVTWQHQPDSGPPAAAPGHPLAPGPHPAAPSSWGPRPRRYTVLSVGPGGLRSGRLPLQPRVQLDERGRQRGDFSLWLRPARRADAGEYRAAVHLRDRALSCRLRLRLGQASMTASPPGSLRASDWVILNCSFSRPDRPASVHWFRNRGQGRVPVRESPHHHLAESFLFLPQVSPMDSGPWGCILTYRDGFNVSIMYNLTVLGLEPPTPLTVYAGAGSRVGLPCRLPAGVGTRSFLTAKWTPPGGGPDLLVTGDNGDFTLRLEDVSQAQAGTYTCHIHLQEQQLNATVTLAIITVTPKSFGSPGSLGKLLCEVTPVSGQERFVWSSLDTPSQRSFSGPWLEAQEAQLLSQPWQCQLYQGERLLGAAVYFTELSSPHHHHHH
Description: (§1) Wild type fucosylated and afucosylated antibodies were compared for their ability to bind to recombinant human LAG-3 ECD with a C-terminal His6 (SEQ ID NO:51) using the Biacore® T100 (GE Healthcare®). Protein A was immobilised on a CM5 chip by primary amine coupling. This surface was then used to capture the humanised antibodies. Recombinant human LAG-3 ECD-His6 was then passed over the captured antibodies at 32, 8, 2, 0.5 and 0.125 nM and regeneration was carried out using 50 mM NaOH. The binding curves were double referenced with buffer injection (i.e. 0 nM) and the data was fitted to the T100 analysis software using the 1:1 model. The run was carried out at 25° C., using HBS-EP as the running buffer.
(§2) In order to investigate the statistical significance of this kinetic data, this experiment was repeated 3 times with the same batch of the four antibodies and the chimeric control. KD, ka and kd parameters were each log (base 10) transformed prior to separate statistical analyses. For each parameter, a mixed model analysis of variance (‘Anova’) was performed on transformed data, including terms for Run (random block effect) and Antibody.
(§3) From the Anova, geometric means were predicted for each antibody, along with statistically plausible ranges (95% confidence intervals) for each mean. Planned comparisons of antibodies were performed within the Anova. […]

[3] = target: T2, Recombinant human LAG-3 ECD-His6; assay: SPR Biacore T100, Anova comparison of kd on LAG-3 ECD-His6
Description: as §1, §2, §3

[4] = target: T3, Recombinant cynomolgus macaque LAG-3 ECD-His6 (cynomolgus macaque, UniProt P18627 24-433 (human entry)); assay: SPR Biacore T100, antibody captured on protein A, LAG-3 ECD-His6 analyte, 37 C, 1:1 model
T3 construct: made in house; also called cyno LAG-3
T3 chain: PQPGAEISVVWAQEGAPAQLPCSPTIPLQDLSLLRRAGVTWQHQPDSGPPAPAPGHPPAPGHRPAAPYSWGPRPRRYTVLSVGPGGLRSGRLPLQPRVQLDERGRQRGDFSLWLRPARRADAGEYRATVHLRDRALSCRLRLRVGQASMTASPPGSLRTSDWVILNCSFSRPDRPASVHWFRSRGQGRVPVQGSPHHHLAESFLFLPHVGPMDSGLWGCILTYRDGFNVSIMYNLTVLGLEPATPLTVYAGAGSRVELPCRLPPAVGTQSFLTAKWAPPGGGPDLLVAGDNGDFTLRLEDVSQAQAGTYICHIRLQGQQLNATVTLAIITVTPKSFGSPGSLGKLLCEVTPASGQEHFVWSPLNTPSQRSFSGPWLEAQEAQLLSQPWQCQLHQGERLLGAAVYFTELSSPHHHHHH
Description: (§4) The binding cross reactivity of anti-LAG-3 humanised antibodies for both cynomolgus macaque (cyno) and baboon recombinant LAG-3 ECD-His6 (SEQ ID NOs 52 and 53, respectively) was assessed using the Biacore® T100 (GE Healthcare®).
(§5) Protein A was immobilised on a CM5 chip by primary amine coupling. This surface was then used to capture the humanised antibodies. In-house generated recombinant cynomolgus macaque and baboon LAG-3 ECD-His6 were then passed over the captured antibodies and regeneration was carried out using 50 mM NaOH. LAG-3 ECD-His6 was passed over at 16, 4, 1, 0.25 and 0.0625 nM. The binding curves were double referenced with buffer injection (i.e. 0 nM) and the data was fitted to the T100 analysis software using the 1:1 model. The run was carried out at 37° C. using HBS-EP as the running buffer.

[5] = target: T4, Recombinant baboon LAG-3 ECD-His6 (baboon, UniProt P18627 24-433 (human entry)); assay: as above
T4 construct: made in house
T4 chain: T3 chain with R188Q, G193E, A243T, A288V, D293N, H357R
Description: as §4, §5

[6] = target: T2, Recombinant human LAG-3 ECD-His6; assay: SPR Biacore T100, antibody captured on protein A, LAG-3 ECD-His6 analyte, 25 C, 1:1 model, geometric mean of 3 runs
Description: as §1, §2, §3

EC50, depletion of antigen specific CD4 T cells by ADCC (primary human T cells, autologous NK cells) [1]: 14 pg/mL and 3.4 ng/mL | EC50, depletion of antigen specific LAG-3 positive CD8 T cells by ADCC [1]: 0.122 ng/mL and 17.5 ng/mL | KD ratio (H5L7BW against H5L7) [2]: 1.05 | kd ratio (H5L7BW against H5L7) [3]: 1.12 | Kd [4]: 21 pM | Kd [5]: 24 pM | koff [6]: 0.00441 s⁻¹
B1: H5L7BW (antibody, human IgG1, kappa, V domains shown)
VH: QVQLQESGPGLVKPSETLSLTCTVSGFSLTAYGVNWIRQPPGKGLEWIGMIWDDGSTDYDSALKSRVTISVDTSKNQFSLKLSSVTAADTAVYYCAREGDVAFDYWGQGTLVTVSS
VL: DIQMTQSPSSLSASVGDRVTITCKSSQSLLNPSNQKNYLAWYQQKPGKAPKLLVYFASTRDSGVPSRFSGSGSGTDFTLTISSLQPEDFATYYCLQHFGTPPTFGQGTKLEIKR
notes: Afucosylated form of H5L7: plasmids encoding H5L7 expressed in the BioWa Potelligent (FUT8 knock-out CHO) cell line; also called afucosylated H5L7BW
